Data as given in the supplement of paper PMC9732359.
± gives the uncertainty stated by the source.

Test: protein stability index of a GFP-peptide fusion (yeast GPS) (PSI 1-4); higher = more stable; sorted into four equal gates, so the index is relative within each strain
In short: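 Tiled 17-residue yeast protein peptides were fused downstream of GFP in a plasmid that also expresses Cherry, and the pooled library was carried in yeast. Mid-log cultures in leucine-free medium were sorted into four equal gates by GFP/Cherry fluorescence ratio, and plasmids from each gate were PCR-amplified and Illumina-sequenced, with reads assigned to strains by barcodes. The protein stability index for each peptide was each gate's read frequency times its gate number, summed.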

## RGQQVENPTDNFIIWIN [GRR1]
doa10∆
  protein stability index: 2.08 ± 0.066
pdr5∆
  protein stability index: 2.35 ± 0.082
san1∆
  protein stability index: 2.59 ± 0.063
ubr1∆
  protein stability index: 2.61 ± 0.061

## VHSSSPSTSSNMDVGNP [GAL11]
doa10∆
  protein stability index: 2.89 ± 0.071
pdr5∆
  protein stability index: 2.75 ± 0.066
san1∆
  protein stability index: 2.69 ± 0.075
ubr1∆
  protein stability index: 3.14 ± 0.054

## KQDKTLQKVENQTIKEA [YIL149C/MLP2]
doa10∆
  protein stability index: 3.22 ± 0.072
pdr5∆
  protein stability index: 3.15 ± 0.07
san1∆
  protein stability index: 3.15 ± 0.071
ubr1∆
  protein stability index: 3.17 ± 0.062

## TSSTHERKSKTYVITKN [RET1]
doa10∆
  protein stability index: 2.44 ± 0.067
pdr5∆
  protein stability index: 2.66 ± 0.08
san1∆
  protein stability index: 2.3 ± 0.064
ubr1∆
  protein stability index: 2.84 ± 0.076

## DEYQAAVEQRKKEKLDS [DPB4]
doa10∆
  protein stability index: 3.47 ± 0.13
pdr5∆
  protein stability index: 3.34 ± 0.14
san1∆
  protein stability index: 3.38 ± 0.11
ubr1∆
  protein stability index: 3.39 ± 0.095

## MQNSKVESVCQKLDILV [SMC4]
doa10∆
  protein stability index: 2.26 ± 0.065
pdr5∆
  protein stability index: 2.13 ± 0.059
san1∆
  protein stability index: 2.3 ± 0.088
ubr1∆
  protein stability index: 1.87 ± 0.056

## YSKAKYPDLQPFVLAEN [CDC53]
doa10∆
  protein stability index: 2.3 ± 0.095
pdr5∆
  protein stability index: 2.72 ± 0.063
san1∆
  protein stability index: 2.13 ± 0.07
ubr1∆
  protein stability index: 2.26 ± 0.078

## YLFDEIDAALDKQYRTA [SMC3]
doa10∆
  protein stability index: 2.88 ± 0.091
pdr5∆
  protein stability index: 2.77 ± 0.097
san1∆
  protein stability index: 2.61 ± 0.1
ubr1∆
  protein stability index: 3.12 ± 0.064

## MYQMITMGGNAELELVD [SMC4]
doa10∆
  protein stability index: 2.81 ± 0.074
pdr5∆
  protein stability index: 2.47 ± 0.1
san1∆
  protein stability index: 2.6 ± 0.08
ubr1∆
  protein stability index: 2.54 ± 0.072

## GLAVGLALINYGRQELA [RPN2]
doa10∆
  protein stability index: 1.3 ± 0.11
pdr5∆
  protein stability index: 1.21 ± 0.076
san1∆
  protein stability index: 1.58 ± 0.24
ubr1∆
  protein stability index: 1.09 ± 0.053

## KLANFFSKKGNEPLSEI [YAR002W/NUP60]
doa10∆
  protein stability index: 2.82 ± 0.095
pdr5∆
  protein stability index: 3.17 ± 0.076
san1∆
  protein stability index: 3.14 ± 0.067
ubr1∆
  protein stability index: 3.13 ± 0.099

## EVKLKASLKKMEETEQK [SMC3]
pdr5∆
  protein stability index: 3.16 ± 0.15
san1∆
  protein stability index: 3.2 ± 0.17
ubr1∆
  protein stability index: 3.53 ± 0.25

## VGVENNGQYAAFVKDMQ [RPC37]
doa10∆
  protein stability index: 3.21 ± 0.12
pdr5∆
  protein stability index: 2.79 ± 0.15
san1∆
  protein stability index: 3.19 ± 0.092
ubr1∆
  protein stability index: 3.41 ± 0.1

## IPSLANNGNNSTSIQYH [POP6]
doa10∆
  protein stability index: 2.45 ± 0.054
pdr5∆
  protein stability index: 2.95 ± 0.06
san1∆
  protein stability index: 2.47 ± 0.066
ubr1∆
  protein stability index: 2.59 ± 0.046

## TDLSGKETIARVTGGMK [RPS14A]
doa10∆
  protein stability index: 3.06 ± 0.087
pdr5∆
  protein stability index: 3.12 ± 0.082
san1∆
  protein stability index: 2.79 ± 0.056
ubr1∆
  protein stability index: 2.92 ± 0.061

## DGTAKEVGDEADNTKDK [MED4]
doa10∆
  protein stability index: 3.06 ± 0.11
pdr5∆
  protein stability index: 3.18 ± 0.12
san1∆
  protein stability index: 3.34 ± 0.088
ubr1∆
  protein stability index: 3.22 ± 0.077

## YGEATSPFGAYGEAPTS [RPO21]
doa10∆
  protein stability index: 2.48 ± 0.065
pdr5∆
  protein stability index: 2.58 ± 0.049
san1∆
  protein stability index: 2.9 ± 0.064
ubr1∆
  protein stability index: 2.79 ± 0.054

## MKYIQTEQQIEIPEGVT [RPL9B]
doa10∆
  protein stability index: 2.4 ± 0.059
pdr5∆
  protein stability index: 2.8 ± 0.063
san1∆
  protein stability index: 2.39 ± 0.064
ubr1∆
  protein stability index: 2.64 ± 0.053

## KTQCPNYDTCGGESAYF [RPC11]
doa10∆
  protein stability index: 3.21 ± 0.16
pdr5∆
  protein stability index: 2.81 ± 0.26
san1∆
  protein stability index: 3.24 ± 0.073
ubr1∆
  protein stability index: 2.94 ± 0.15

## GKAATAKETHTKPSETP [YOR098C/NUP1]
doa10∆
  protein stability index: 2.57 ± 0.098
pdr5∆
  protein stability index: 2.84 ± 0.094
san1∆
  protein stability index: 2.76 ± 0.077
ubr1∆
  protein stability index: 2.37 ± 0.091

## YEGMKLGNHAITIDSVV [YMR129W/POM152]
doa10∆
  protein stability index: 2.27 ± 0.094
pdr5∆
  protein stability index: 1.36 ± 0.12
san1∆
  protein stability index: 1.64 ± 0.16
ubr1∆
  protein stability index: 2 ± 0.15

## EVSGENVVEADLKRFVD [QCR2]
doa10∆
  protein stability index: 3.31 ± 0.19
pdr5∆
  protein stability index: 3.25 ± 0.13
san1∆
  protein stability index: 3.36 ± 0.058
ubr1∆
  protein stability index: 3.66 ± 0.067

## NNFRESDIIILKGEIED [SIR4]
doa10∆
  protein stability index: 3.05 ± 0.18
pdr5∆
  protein stability index: 2.12 ± 0.091
san1∆
  protein stability index: 2.32 ± 0.13
ubr1∆
  protein stability index: 2.93 ± 0.13

## KRKKEANEEPNTENVES [ITC1]
doa10∆
  protein stability index: 3.1 ± 0.062
pdr5∆
  protein stability index: 2.74 ± 0.046
san1∆
  protein stability index: 2.78 ± 0.07
ubr1∆
  protein stability index: 2.65 ± 0.034

## KSLDAETEAEEDHMLKK [RPO21]
doa10∆
  protein stability index: 3.15 ± 0.29
pdr5∆
  protein stability index: 2.56 ± 0.21
san1∆
  protein stability index: 3.19 ± 0.1
ubr1∆
  protein stability index: 3.16 ± 0.094
